Key:
[1] = biological target: T1, gt1b NS3 (Hepatitis C virus genotype 1b strain N, UniProt Q9WPH5 1028-1658); assay: filter binding; 3 mM Mg2+; legend names NS3-4A; 25 mM MOPS-NH4+ pH 6.5, 3 mM MgCl2, 30 mM NaCl, 1% glycerol, 2 mM DTT, 0.1% Triton X-100; filter binding 37 C, 0.5 nM RNA, Hill fit; stopped flow 25 C; conditions: protein: recombinant; tags: His6-SUMO removed (native N terminus); label: 5'-32P
[2] = biological target: T2, JFH-1 NS3 (Hepatitis C virus genotype 2a strain …, UniProt Q99IB8 1031-1661); assay: as above; conditions: protein: recombinant; tags: His6-SUMO removed (native N terminus); label: 5'-32P
[3] = biological target: T2, JFH-1 NS3; assay: filter binding; 3 mM Mg2+; (stopped-flow kon 59 uM-1 s-1, Fig 2A); 25 mM MOPS-NH4+ pH 6.5, 3 mM MgCl2, 30 mM NaCl, 1% glycerol, 2 mM DTT, 0.1% Triton X-100; filter binding 37 C, 0.5 nM RNA, Hill fit; stopped flow 25 C; conditions: protein: recombinant; tags: His6-SUMO removed (native N terminus); 5' Cy3 top strand via C3 amino linker (stopped flow); 3' overhang 18 nt on strand 1
[4] = biological target: T1, gt1b NS3; assay: filter binding; 3 mM Mg2+; (stopped-flow kon 13 uM-1 s-1, Fig 2A); 25 mM MOPS-NH4+ pH 6.5, 3 mM MgCl2, 30 mM NaCl, 1% glycerol, 2 mM DTT, 0.1% Triton X-100; filter binding 37 C, 0.5 nM RNA, Hill fit; stopped flow 25 C; conditions: protein: recombinant; tags: His6-SUMO removed (native N terminus); 5' Cy3 top strand via C3 amino linker (stopped flow); 3' overhang 18 nt on strand 1
[5] = biological target: T2, JFH-1 NS3; assay: filter binding; 3 mM Mg2+; (stopped-flow kon 69 uM-1 s-1, Fig 2B); 25 mM MOPS-NH4+ pH 6.5, 3 mM MgCl2, 30 mM NaCl, 1% glycerol, 2 mM DTT, 0.1% Triton X-100; filter binding 37 C, 0.5 nM RNA, Hill fit; stopped flow 25 C; conditions: protein: recombinant; tags: His6-SUMO removed (native N terminus); 5' Cy3 top strand via C3 amino linker (stopped flow); 3' overhang 12 nt on strand 1
[6] = biological target: T1, gt1b NS3; assay: filter binding; 3 mM Mg2+; (stopped-flow kon 9.9 uM-1 s-1, Fig 2B); 25 mM MOPS-NH4+ pH 6.5, 3 mM MgCl2, 30 mM NaCl, 1% glycerol, 2 mM DTT, 0.1% Triton X-100; filter binding 37 C, 0.5 nM RNA, Hill fit; stopped flow 25 C; conditions: protein: recombinant; tags: His6-SUMO removed (native N terminus); 5' Cy3 top strand via C3 amino linker (stopped flow); 3' overhang 12 nt on strand 1
[7] = biological target: T1, gt1b NS3; assay: filter binding; 3 mM Mg2+; (stopped-flow kon 3.5 uM-1 s-1, Fig 2C); 25 mM MOPS-NH4+ pH 6.5, 3 mM MgCl2, 30 mM NaCl, 1% glycerol, 2 mM DTT, 0.1% Triton X-100; filter binding 37 C, 0.5 nM RNA, Hill fit; stopped flow 25 C; conditions: protein: recombinant; tags: His6-SUMO removed (native N terminus); 5' Cy3 top strand via C3 amino linker (stopped flow); 3' overhang 6 nt on strand 1
[8] = biological target: T2, JFH-1 NS3; assay: filter binding; 3 mM Mg2+; (stopped-flow kon 15 uM-1 s-1, Fig 2C); 25 mM MOPS-NH4+ pH 6.5, 3 mM MgCl2, 30 mM NaCl, 1% glycerol, 2 mM DTT, 0.1% Triton X-100; filter binding 37 C, 0.5 nM RNA, Hill fit; stopped flow 25 C; conditions: protein: recombinant; tags: His6-SUMO removed (native N terminus); 5' Cy3 top strand via C3 amino linker (stopped flow); 3' overhang 6 nt on strand 1

B1: ssT34 (ssRNA)
RNA: CUGUGGCAUGUCCUAGCGUCGUAUCGAUCUGGUC
[1]
  Kd: 7.56 ± 0.33 nM
[2]
  Kd: 8.36 ± 0.29 nM

B2: 12bp/18-OH (dsRNA)
RNA 1: CGGCAGCGAGGCAGAGGAGCAGAGGGAGCA
RNA 2: GCCUCGCUGCCG
[3]
  Kd: 6.56 ± 0.23 nM
[4]
  Kd: 7.25 ± 0.17 nM

B3: 12bp/12-OH (dsRNA)
RNA 1: CGGCAGCGAGGCAGAGGAGCAGCA
RNA 2: GCCUCGCUGCCG
[5]
  Kd: 7.69 ± 0.21 nM
[6]
  Kd: 15.7 ± 0.61 nM

B4: 12bp/6-OH (dsRNA)
RNA 1: CGGCAGCGAGGCAGGACA
RNA 2: GCCUCGCUGCCG
[7]
  Kd: 60.4 ± 4.38 nM
[8]
  Kd: 14.9 ± 0.52 nM
